# Laboratory results: US20240368238A1 (DRACOTERPIN BIOMEDICINE, published 2024)
# T1: IL-2Rβ/γ-Fc heterodimer (IL-2Rβ-Fc-hole + IL-2Rγ-Fc-knob) (UniProt P14784 27-240; P31785 23-262)
# T1 construct: Both chains transfected together into HEK293; purified with Protein A and Superdex 200; used as the analyte in the BLI; also called IL-2Rβ/γ heterodimers; not shown: Fc hole; Fc knob
# T1 sequence (looked up) 1: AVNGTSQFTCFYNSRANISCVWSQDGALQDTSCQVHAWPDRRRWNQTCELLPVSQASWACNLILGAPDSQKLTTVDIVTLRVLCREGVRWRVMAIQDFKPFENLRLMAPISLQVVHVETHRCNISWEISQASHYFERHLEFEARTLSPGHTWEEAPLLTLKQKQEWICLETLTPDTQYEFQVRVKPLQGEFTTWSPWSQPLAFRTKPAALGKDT
# T1 sequence (looked up) 2: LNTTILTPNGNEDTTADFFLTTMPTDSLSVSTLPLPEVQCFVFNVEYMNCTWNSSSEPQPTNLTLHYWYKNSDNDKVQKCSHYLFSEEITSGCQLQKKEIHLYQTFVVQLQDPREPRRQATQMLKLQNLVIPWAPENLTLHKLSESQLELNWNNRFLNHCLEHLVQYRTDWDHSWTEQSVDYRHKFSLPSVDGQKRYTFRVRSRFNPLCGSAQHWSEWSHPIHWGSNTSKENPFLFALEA
# T2: IL-2Rβ/γ receptor subunit complex on CTLL-2 cells (UniProt P16297 27-539; P34902 23-369)
# T2 sequence (looked up) 1: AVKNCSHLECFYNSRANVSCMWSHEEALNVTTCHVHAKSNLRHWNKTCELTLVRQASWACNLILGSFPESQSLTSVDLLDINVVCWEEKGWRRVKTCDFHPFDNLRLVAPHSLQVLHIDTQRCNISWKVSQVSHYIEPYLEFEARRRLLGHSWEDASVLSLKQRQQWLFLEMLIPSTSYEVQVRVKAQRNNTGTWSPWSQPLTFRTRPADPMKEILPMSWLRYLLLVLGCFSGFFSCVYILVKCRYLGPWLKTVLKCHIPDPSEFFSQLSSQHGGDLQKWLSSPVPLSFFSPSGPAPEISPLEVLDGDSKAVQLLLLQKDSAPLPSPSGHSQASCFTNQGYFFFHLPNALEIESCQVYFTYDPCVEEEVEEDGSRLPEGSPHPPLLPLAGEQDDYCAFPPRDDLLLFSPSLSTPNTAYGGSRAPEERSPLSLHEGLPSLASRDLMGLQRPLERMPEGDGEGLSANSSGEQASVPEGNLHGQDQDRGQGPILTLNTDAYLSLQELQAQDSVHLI
# T2 sequence (looked up) 2: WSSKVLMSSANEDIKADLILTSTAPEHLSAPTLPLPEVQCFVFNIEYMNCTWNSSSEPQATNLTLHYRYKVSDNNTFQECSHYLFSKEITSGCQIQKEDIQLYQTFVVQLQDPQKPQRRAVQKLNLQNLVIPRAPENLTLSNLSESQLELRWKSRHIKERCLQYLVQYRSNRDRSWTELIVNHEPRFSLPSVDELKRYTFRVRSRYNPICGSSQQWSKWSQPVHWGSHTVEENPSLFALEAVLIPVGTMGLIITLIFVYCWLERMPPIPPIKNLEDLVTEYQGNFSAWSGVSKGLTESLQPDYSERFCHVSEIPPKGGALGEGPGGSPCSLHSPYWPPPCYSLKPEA
# T3: IL2-Rα-his (UniProt P01589 22-240, limits assumed)
# T3 construct: used as the analyte in the BLI; also called IL-2 receptor α; CD25; not shown: his tag
# T3 sequence (looked up): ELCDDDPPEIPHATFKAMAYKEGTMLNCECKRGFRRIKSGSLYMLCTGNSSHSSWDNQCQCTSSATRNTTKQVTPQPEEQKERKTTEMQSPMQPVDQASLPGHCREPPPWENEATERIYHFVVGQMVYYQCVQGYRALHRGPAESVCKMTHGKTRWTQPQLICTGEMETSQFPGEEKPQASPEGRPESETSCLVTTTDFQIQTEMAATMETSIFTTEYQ
# Experiments:
# [1] = target: T1, IL-2Rβ/γ-Fc heterodimer (IL-2Rβ-Fc-hole …); assay: BLI (Octet RED96e), AR2G sensors, IL-2Rβ/γ-Fc heterodimer as analyte, 1:1 global fit
# Description: (§1) Experimental data were processed using Data Analysis software 9.0. […] The method of global fitting was applied, i.e., the 6 concentrations were analyzed as a group.
# [2] = target: T2, IL-2Rβ/γ receptor subunit complex on …; assay: cell-based or functional assay
# [3] = target: T3, IL2-Rα-his; assay: Octet BLI per Example 2, IL-2Rα-his as analyte at the concentration on the x axis; y axis on the sheet reads OD490
# Description: (§2) 2. The experiment was performed with reference to the experimental design below. The whole experiment was completed under the conditions of 30° C., 1000 rpm, 220 μl/well. The proteins used in the experiment were IL2-Rα-his and IL-2 variants or derivatives thereof obtained by transient expression in HEK293 and affinity purification.
# as §1
# [4] = target: T1, IL-2Rβ/γ-Fc heterodimer (IL-2Rβ-Fc-hole …); assay: Octet BLI per Example 3, IL-2Rβ/γ-Fc heterodimer as analyte at the concentration on the x axis; y axis on the sheet reads OD490
# Description: as §1
# [5] = target: T3, IL2-Rα-his; assay: BLI (Octet RED96e), AR2G sensors, IL-2Rα-his as analyte, 1:1 global fit
# Description: as §2, §1
Binder,Kd [1] [µM],"Relative activity (CTLL-2 cell proliferation, CCK-8) [2] [%]",EC50 (read off the curve) [3] [µM],EC50 (read off the curve) [4] [µM],Kd [5] [µM],binding result [3]
"IL-2-6 (35-41 + 43-45 + 125) (ligand, Human IL-2 variant; HEK293 expression, purified by the HPC4 tag; not shown: HPC4 tag at the C-terminus) APTSSSTKKTQLQLEHLLLDLQMILNGINNYKNPMHGLDGFGMPKKATELKHLQCLEEELKPLEEVLNLAQSKNFHLRPRDLISNINVIVLELKGSETTFMCEYADETATIVEFLNRWITFAQSIISTLT",0.0196,13,,~0.1,,no binding (tested: 500 nM)
"IL-2-1 (31-32 + 35-41 + 43-45 + 125) (ligand, Human IL-2 variant; HEK293 expression, purified by the HPC4 tag; not shown: HPC4 tag at the C-terminus) APTSSSTKKTQLQLEHLLLDLQMILNGINNGGNPMHGLDGFGMPKKATELKHLQCLEEELKPLEEVLNLAQSKNFHLRPRDLISNINVIVLELKGSETTFMCEYADETATIVEFLNRWITFAQSIISTLT",0.0179,13,,~0.1,,no binding (tested: 500 nM)
"IL-2-8 (35-43 + 125) (ligand, Human IL-2 variant; HEK293 expression, purified by the HPC4 tag; not shown: HPC4 tag at the C-terminus) APTSSSTKKTQLQLEHLLLDLQMILNGINNYKNPMGGLGGFYMPKKATELKHLQCLEEELKPLEEVLNLAQSKNFHLRPRDLISNINVIVLELKGSETTFMCEYADETATIVEFLNRWITFAQSIISTLT",0.0213,8,,~0.1,,no binding (tested: 1000 nM)
"IL-2-9 (35-41 + 43-45 + 125) (ligand, Human IL-2 variant; HEK293 expression, purified by the HPC4 tag; not shown: HPC4 tag at the C-terminus) APTSSSTKKTQLQLEHLLLDLQMILNGINNYKNPGGGGGGFGMPKKATELKHLQCLEEELKPLEEVLNLAQSKNFHLRPRDLISNINVIVLELKGSETTFMCEYADETATIVEFLNRWITFAQSIISTLT",0.0272,8,,~0.1,,no binding (tested: 500 nM)
"IL-2-2 (35-41 + 125) (ligand, Human IL-2 variant; HEK293 expression, purified by the HPC4 tag; not shown: HPC4 tag at the C-terminus) APTSSSTKKTQLQLEHLLLDLQMILNGINNYKNPMHGLDGFKFYMPKKATELKHLQCLEEELKPLEEVLNLAQSKNFHLRPRDLISNINVIVLELKGSETTFMCEYADETATIVEFLNRWITFAQSIISTLT",0.00487,64,~0.06,~0.1,0.000789,
"IL-2-4 (43-45 + 125) (ligand, Human IL-2 variant; HEK293 expression, purified by the HPC4 tag; not shown: HPC4 tag at the C-terminus) APTSSSTKKTQLQLEHLLLDLQMILNGINNYKNPKLTRMLTFGMPKKATELKHLQCLEEELKPLEEVLNLAQSKNFHLRPRDLISNINVIVLELKGSETTFMCEYADETATIVEFLNRWITFAQSIISTLT",0.00411,100,~0.06,~0.1,0.000799,

# Other lines, results leading:
Kd [1] [µM],"Relative activity (CTLL-2 cell proliferation, CCK-8) [2] [%]",EC50 (read off the curve) [3] [µM],EC50 (read off the curve) [4] [µM],Kd [5] [µM],binding result [3],Binder
0.00374,100,~0.06,~0.1,0.000656,,"IL-2-3 (31-32 + 125) (ligand, Human IL-2 variant; HEK293 expression, purified by the HPC4 tag; not shown: HPC4 tag at the C-terminus) APTSSSTKKTQLQLEHLLLDLQMILNGINNGGNPKLTRMLTFKFYMPKKATELKHLQCLEEELKPLEEVLNLAQSKNFHLRPRDLISNINVIVLELKGSETTFMCEYADETATIVEFLNRWITFAQSIISTLT"
0.00524,90,~0.06,~0.1,0.000904,,"IL-2-5 (31-32 + 35-41 + 125) (ligand, Human IL-2 variant; HEK293 expression, purified by the HPC4 tag; not shown: HPC4 tag at the C-terminus) APTSSSTKKTQLQLEHLLLDLQMILNGINNGGNPMHGLDGFKFYMPKKATELKHLQCLEEELKPLEEVLNLAQSKNFHLRPRDLISNINVIVLELKGSETTFMCEYADETATIVEFLNRWITFAQSIISTLT"
0.00648,58,~0.07,~0.1,0.00325,,"IL-2-7 (31-32 + 43-45 + 125) (ligand, Human IL-2 variant; HEK293 expression, purified by the HPC4 tag; not shown: HPC4 tag at the C-terminus) APTSSSTKKTQLQLEHLLLDLQMILNGINNGGNPKLTRMLTFGMPKKATELKHLQCLEEELKPLEEVLNLAQSKNFHLRPRDLISNINVIVLELKGSETTFMCEYADETATIVEFLNRWITFAQSIISTLT"
